Experiment: yeast display, Sf9 membrane polyspecificity reagent, FACS + sequencing; frameworks hold sequencing errors
Procedure, shortened: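 A synthetic nanobody library was expressed on Saccharomyces cerevisiae BJ5465 by galactose induction for 36–48 hours. The library was stained for 1 hour at 4 °C with 10% biotinylated, detergent-solubilized Sf9 membrane reagent and enriched with streptavidin microbeads before FACS. Low and high (top ~1%) gates were set on anti-HA fluorescence for expression and streptavidin fluorescence for reagent binding, and each polyreactivity label reflects the gate of origin.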

Sequence | polyreactivity (PSR sort gate)
QVQLVESGGGLVQAGGSLRLSCAASGYIFERNAMGWYRQAPGKERELVAAITDDGDDTYYADSVKGRFTISRDNAKNTVFLLMNSLKPEDTAVYYCAKDLYYGDYYYWGQGTQVTVSS | low polyreactivity
QVQLVESGGGLVQAGGSLRLSCAASGYIFERYAMGWYRPAPGKERELVAAISSGGGRTYYADSVKGRFTISRDNAKNPVYLQMNSLQPEDTAVYYCAADHWWISSYWGQGTQVTVSS | high polyreactivity
QVQLVESGGGLVQAGGSLRLSCAASGYIFEVNTMGWYIQAPGKERELVAAITSGGTTYYADSVKGRFTISRDNAKNTVYLQMNSLKPDDTAVYYCAALWSRRRSRPRFDYWGQGTQVTVSS | high polyreactivity
QVQLVESGGGLVQAGGSLRLSCAASGYIFEYYAMGWYRQAPGKERELVAAISWSGGSTYYADSVKGRFTISRDNAKNTVYFQLNSLKPVDTAVYYCAAEYVTYQQGLWGYDYWGQGTQVTVSS | low polyreactivity
QVQLVESGGGLVQAGGSLRLSCAASGYIFGFYAMGWYRQAPGKERELVSRITYSGTSTYYADSVKGRFTISRDNAKNTVYLQMNSLKPEDTAVYYCATDFVRHAGWRRYDYWGQGTQVTVSS | low polyreactivity
QVQLVESGGGLVQAGGSLRLSCAASGYIFGGNAMGSYRPAPGNPRELVAAISSSSGGTYYADSVKGRFTISRDNAKNTVYLQMNSLKPEDTAVYYCAAAPVDYEYDYWGQGTQVTVSS | low polyreactivity
QVQLVESGGGLVQAGGSLRLSCAASGYIFGRNARGWYRQAQGKERELVAVISSRGSRTYYADSVKGRYTISRDNAKNTVYLQMNSLKPEDTAVYYCNAVMWWDWEYDFYYWGQGNQVTVSS | high polyreactivity
QVQLVESGGGLVQAGGSLRLSCAASGYIFGVYAMGWYRQAPGKERELVARITSGGSTNYADSVKGRFTISRDNAKNTVYLQMNSLKPEDTAVYYCAAAVGNTDREYDYWGQGTQVTVSS | low polyreactivity
QVQLVESGGGLVQAGGSLRLSCAASGYIFGWYTMGWYRQAPGKEREFVASISNSDASTYYADSVKGRFTISRDNAKNTVYLQMNSLKPEDTAVYYCAADTTYWHWIYYYWGQGTQVTVSS | low polyreactivity
QVQLVESGGGLVQAGGSLRLSCAASGYIFGYNTMGWYRQAPGKERELVAAISKSGGRTYYADSVKGRFTISRDNAKNTVYLQMNSLKPEDTAVYYCAADGWSGKLRYTRYDYWGQGTQVTVSS | high polyreactivity
QVQLVESGGGLVQAGGSLRLSCAASGYIFHLYGMGWYRQAPGKERELVARISYRGGSTYYADSVKGRFTISRDNAMKTVYLQRNSLKPEETAVYYCAAYRRQHIIYNYWGQGTQVSVSS | high polyreactivity
QVQLVESGGGLVQAGGSLRLSCAASGYIFHNYAMGWYIQAPGKERELVAAITRSAGRTYYADSVKGRFTISRDNAKNTVYLQMNSLKPEDTAVYYCNARYGGRFYYCGQGTQVTVSS | high polyreactivity
QVQLVESGGGLVQAGGSLRLSCAASGYIFISYAMGWYRQAPGKEREFVAAITGDGGSTYADSVKGRFSISRDNAKNTVYLQMNSLKPEDTAVYYCAVDGYGGEADYEYDHCGQGTQVTVSS | low polyreactivity
QVQLVESGGGLVQAGGSLRLSCAASGYIFITYAMGWYRQAPGKERELVAAISRRGGRTYYADSVKGRFTISRDNAKNTVYLQMNSLKPEDTAVYYCAADPATSVYGGLNYWGQGTQVTVSS | high polyreactivity
QVQLVESGGGLVQAGGSLRLSCAASGYIFKVNSMGWYRPAPGKERELDADISSNSGSTRYADSVKARFTISRDNAKNTVYLQMNSLKQDDTAVYYCAADGRYWVKPGSPWDRSRYDYWGQGTQVTVSS | low polyreactivity
QVQLVESGGGLVQAGGSLRLSCAASGYIFLGYAMGWYRQAPGKERELVAAISSRGGSTYYADSVKGRFTISRDNAKNTVYLQMNSLKPEDTAVYYCAAYRFSDRAAYGYYDRHYYWGQGTQVTVSS | high polyreactivity
QVQLVESGGGLVQAGGSLRLSCAASGYIFLPNTMGWYRQAPGKERELVAVISKSGTSTYYADSVKGRFTISRDNAKNTVYLQMNSLKPEDTAVYYCNRVYRLTAYGYDYWGQGTQVTLSS | high polyreactivity
QVQLVESGGGLVQAGGSLRLSCAASGYIFNRYVMGWYRQAPGKERELVAAITWRGGTTYADSVKGRFTISRDNAKNTVYLLMNSLKPEDTAVYYCAARRYPFEYDYWGQGTQVTVSS | high polyreactivity
QVQLVESGGGLVQAGGSLRLSCAASGYIFNSNTMGWYRPAPGKERELVAAITSSGGRTNYADSVKGRFTISRDNAKNTVYLQMNSLKPEDTAVYYCATRVYYRAGRYKYDYWGQGTQVTVSS | high polyreactivity
QVQLVESGGGLVQAGGSLRLSCAASGYIFPAYAMGWYRQAPGKERELVAAISWSTGSTYYADSVKGRFTISRDNAKNTVYLQMNSLKPEDTAVYYCAAGRPRRVPDHWYIYYYWGQGTQVTVSS | low polyreactivity
QVQLVESGGGLVQAGGSLRLSCAASGYIFPTYAMGWYRQEPGKERELVAAISISGGDTYYADSVKGRFTISRDNAKNTVYLQMNSLKPEDTAVYYCAAVKYETYRYNYDYWGQGTQVTVSS | high polyreactivity
QVQLVESGGGLVQAGGSLRLSCAASGYIFPWYDMGWYRQAPGKERELVAAISWSGGSTYSADSVKGRFTISRDNAKNTVDLQMNSLKPEDTAVYYCAAYLSHYATRYGYWGHGTQVTVSS | high polyreactivity

Sequence | polyreactivity (PSR sort gate)
QVQLVESGGGLVQAGGSLRLSCAASGYIFPYNAMGWYRQAPGKERELVAAISASGGTTYYADSVKGRFTISRDNAKNTVYLQMNSLKPEDTAVYYCAASFAVTSGHHYEYWGQGTQVTVSS | high polyreactivity
QVQLVESGGGLVQAGGSLRLSCAASGYIFPYYTMGWYRQAPGKERELVAAITIGGSTYYADSVKGRFTISRDNAKNTVYLKMNSLKPEDTAVYYCAAKYYDYLYRYIMEYWGQGTQVTVSS | low polyreactivity
QVQLVESGGGLVQAGGSLRLSCAASGYIFQPYAMGWYRQAPGKERELVAAISWRGGTTYYADSVKGRFTISRDNAKITVYLQMNSLKPEDTAVYDCAKDYYYGLDHYGYWGQGTQVTVSS | low polyreactivity
QVQLVESGGGLVQAGGSLRLSCAASGYIFRLYAMGWYRQAPGKERELVATITASGGTYYADSVKGRFTISRDNAKNTVYLQMNSLKPEDTAVYYCAAAKLRRLSRVRYGYWGQGTQVTVSS | high polyreactivity
QVQLVESGGGLVQAGGSLRLSCAASGYIFRQNAMGWYRQAPGKERELVAAITWSGGSTYYADSVKGRFTISRDNAKNTVYLQMNSLKPEDTAVYYCNAYSYVAIRDGGDYWGQGTQVTVSS | low polyreactivity
QVQLVESGGGLVQAGGSLRLSCAASGYIFRRYAMGWYRQAPGKERELVAAISKSGVSTYYADSVKGRFTISRDNAKNTVYLQMNSLKPEDTAVYYCAASSYTWGEDYWGQGTQVTVSS | high polyreactivity
QVQLVESGGGLVQAGGSLRLSCAASGYIFRSYAMGWYRQAPGKERELVAAITRSGGSTYYADSVKGRFTISRDNAKNTVYLQMNSLKPEDTAVYYCAVLPRGSNGMDYWGQGTQVTVSS | low polyreactivity
QVQLVESGGGLVQAGGSLRLSCAASGYIFRYNAMGWYRQAPGKERELVAAIRATGGSTYYADSVKGRFTISRDNAKNTVSLQMNSLKPEDTAVYYCNAGGQGRTYRYYYWGQGTQVTVSS | high polyreactivity
QVQLVESGGGLVQAGGSLRLSCAASGYIFRYYAMGWYRQAPGKERELVAAISWNGGRTYYADSVKGRFTISRDNAKNTVYLQMNSLKPEDTAVYYCAARYWGDYFTEMNYWGQGTQVTVSS | high polyreactivity
QVQLVESGGGLVQAGGSLRLSCAASGYIFRYYAMGWYRQAPGKERELVAAISWNGGRTYYADSVKGRFTISRDNAKNTVYLQMNSLKPEDTAVYYCNTYWDGAREYDYWGQGTQVTVSS | high polyreactivity
QVQLVESGGGLVQAGGSLRLSCAASGYIFSGYAMGWYRQAPGKERELVAAISSSGGRTYYADSVKGRFTISRDNAKNTVYLQMNSLKPEDTAVYYCAADAVYYHFDYWGQGTQVTVSS | high polyreactivity
QVQLVESGGGLVQAGGSLRLSCAASGYIFSGYAMGWYRQAPGKERELVAAISSSGGRTYYADSVKGRFTISRDNAKNTVYLQMNSLKPEDTAVYYCAARIRTVAHVDYDYWGQGTQVTVSS | high polyreactivity
QVQLVESGGGLVQAGGSLRLSCAASGYIFSVYAMGWYRQAPGKERELVAAISSGGSTYYADSVKGRFTISRDNAKNTVYLQMNSLKPEDTAVYYCAAESEYVYWYYVDYDYWGQGTQVTVSS | high polyreactivity
QVQLVESGGGLVQAGGSLRLSCAASGYIFSYNAMGWYRQAPGKERELVAAITASGGGTYYADSVKGRFTISRDNAKNTVYLQMNSLKPEDTAVYYCAADFNDHYYWYGQDYDYWGQGTQVTVSS | low polyreactivity
QVQLVESGGGLVQAGGSLRLSCAASGYIFTYYAMGWYRQAPGKERELVAAISGSDGNTYYADSVKGRFTISRDNAKKTDYLEMISLKPEDTAVYYCAKSGGLTFRSQRYDYWGQGTQVNVSS | low polyreactivity
QVQLVESGGGLVQAGGSLRLSCAASGYIFVPYAMGWSRQAPGKERELVAAISRGGNTNYADSVKGRFTISRDNAKNTVYLQMNSLKPEDTAVYYCNADLVQYWGRRRWYDYWGQGTQVTVSS | low polyreactivity
QVQLVESGGGLVQAGGSLRLSCAASGYIFVRNAMGWYRQAPGKERELVAAISRTDGTTYYADSVKGRFTISRDNAKNTVYLQMNSLKPEDTAVYYCAADYLRAPYYQYEYWGQGTQVTVSS | low polyreactivity
QVQLVESGGGLVQAGGSLRLSCAASGYIFVYNAMGWYRQAPGKERELVAAITDGGGSTYADSVKGRFTISRDNAKNTVYLQMNSLKPEDTAVYYCAARYSDTTWYVLYYYWGQGTQVTVSS | low polyreactivity
QVQLVESGGGLVQAGGSLRLSCAASGYIFWSYAMGWYRQAPGKERELVAAISAYGCRTYYADSVKGRFTISRDNAKTTVYLQMNSLKPEDTAVYYCNADTGNHAYWYYGEFYYYTYDYWGQGTQVTVSS | low polyreactivity
QVQLVESGGGLVQAGGSLRLSCAASGYIFYDYVMGWYRQAPGKEREVVAAISSGGNTNYADSVKGRFTISRDNAKNTVYLQMNSLKPEDTAVYYCAADRWGARRKQYHENGYWGQGTQVTVSS | high polyreactivity
QVQLVESGGGLVQAGGSLRLSCAASGYIFYHYAMGWYRQAPGKERELVATISLGGGRTYYADSVKGRFTISRDTAKNTVYLQMNSLKPEDTAVYYCAADDGPGFDYWGQGTQVTVSS | high polyreactivity

Source: the nanobody polyreactivity screen of Harvey et al. (2022)
